Assay results as given in patent US7001882B1, “Muteins of bilin-binding protein” (Pieris Proteolab AG, priority 1999, dated 2006).
Residue numbers refer to the chain shown, from its start.

Tests used:
Assay type in all cases: binding
[1] = Fluorescence titration of Bbp muteins with digitoxigenin
Experimental: (§1) The ligand binding properties of muteins DigA, DigA16 and also of the recombinant bilin-binding protein (encoded by SEQ ID NO:16) were determined by means of the method of fluorescence titration. In this case, the decrease in intrinsic tyrosine and/or tryptophan fluorescence of the protein forming a complex with the ligand was measured. The measurements were carried out in a fluorimeter, type LS 50 B (Perkin Elmer) at an excitation wavelength of 295 nm (slit width 4 nm) and an emission wavelength of 345 nm (slit width 6 nm). The ligands used were digoxigenin (Fluka), digoxin (Fluka), digitoxigenin (Fluka), digitoxin (Fluka), testosterone (Sigma), ouabain (Fluka), and 4-aminofluorescein (Fluka).
(§2) The buffer system used was PBS with the addition of 1 mM EDTA. […] The concentration was determined by means of absorption at 280 nm using calculated extinction coefficients of 53580 M^−1 cm^−1 for DigA and DigA16 (Wisconsin Software Package, Genetics Computer Group). For Bbp, the calculated extinction coefficient of 54150 M^−1 cm^−1, corrected in the presence of guanidinium chloride according to Gill and von Hippel (Anal. Biochem. 182 (1989), 319–326) was used. […]
(§3) Here, F means the normalized fluorescence intensity and [L]t the total ligand concentration in the particular titration step. […]

[2] = Sandwich ELISA detecting digoxigenin groups with DigA16-alkaline phosphatase fusion proteins; settings: p-nitrophenyl phosphate hydrolysis, 405 nm, FIG. 3
Source text: Here, the digoxigenin groups were coupled on the one hand to bovine serum albumin (BSA, squares) or, on the other hand, to chicken egg albumin (ovalbumin, triangles) The control data shown are those obtained when using underivatized bovine serum albumin and the fusion protein encoded by pBBP27 (open circles). The enzymatic activity corresponding to the particular bound fusion protein was monitored spectrophotometrically at 405 nm on the basis of p-nitrophenyl phosphate hydrolysis. Curve fitting was carried out by non-linear regression with the aid of the Kaleidagraph computer program (Abelbeck Software) by means of the equation [P·L]=[L]t[P]t/(Kd+[P]t)
Here, [P]t corresponds to the total fusion protein concentration used in the particular microtiter plate well. [P·L] is determined on the basis of the enzymatic activity of alkaline phosphatase. […]
For detecting digoxigenin groups in a sandwich ELISA, the wells in in each case two rows of a microtiter plate (ELISA strips, 2×8 well with high binding capacity, F-type, Greiner) were filled in each case with 100 μl of a 100 μg/ml solution of the BSA-digoxigenin conjugate or the ovalbumin-digoxigenin conjugate in PBS and incubated at RT overnight. […] The fusion proteins bound to the digoxigenin groups were finally detected by means of alkaline phosphatase-catalyzed hydrolysis of p-nitrophenyl phosphate. […]

[3] = Fluorescence titration of Bbp muteins with testosterone; settings: 1 μM mutein, PBS with 1 mM EDTA, 25° C., read-out: Kd, ligand testosterone
Experimental: as §1, §2, §3

[4] = Fluorescence titration of Bbp muteins with 4-aminofluorescein; settings: 1 μM mutein, PBS with 1 mM EDTA, 25° C., read-out: Kd, ligand 4-aminofluroescein
Experimental: as §1, §2, §3

[5] = Fluorescence titration of Bbp muteins with digoxin; settings: 1 μM mutein, PBS with 1 mM EDTA, 25° C., read-out: Kd, ligand digoxin
Experimental: as §1, §2, §3

[6] = Fluorescence titration of Bbp muteins with ouabain
Experimental: as §1, §2, §3

[7] = Fluorescence titration of Bbp muteins with digitoxin; settings: 1 μM mutein, PBS with 1 mM EDTA, 25° C., read-out: Kd, ligand digitoxin
Experimental: as §1, §2, §3

[8] = Fluorescence titration of Bbp muteins with digoxigenin
Experimental: as §1, §2, §3

B1: DigA16: affinity-improved mutein of the bilin-binding protein derived from DigA, encoded by SEQ ID NO:15 (polypeptide SEQ ID NO: 23) (protein)
chain: DVYHDGACPEVKPVDNFDWSQYHGKWWQVAAYPDHITKYGKCGWAEYTPEGKSVKVSRYSVIHGKEYFSEGTAYPVGDSKIGKIYHSYTIGGVTQEGVFNVLSTDNKNYIIGYFCSYDEDKKGHMDLVWVLSRSMVLTGEAKTAVENYLIGSPVVDSQKLVYSDFSEAACKVNN
- Kd ([1]; 1 μM mutein, PBS with 1 mM EDTA, 25° C., read-out: Kd, ligand digitoxigenin): 2.8 ± 2.7 nM
- binding of digitoxigenin compared with digoxigenin (FIG. 1, in words) ([1]; FIG. 1): bound even tighter than digoxigenin
- binding of the digoxigenin group as conjugate with BSA and with ovalbumin in ELISA (in words) [2]: context-independent
- Kd [3]: > 10000 nM
- Kd [4]: > 10000 nM
- Kd [5]: 31.1 ± 3.2 nM
- Kd ([6]; 1 μM mutein, PBS with 1 mM EDTA, 25° C., read-out: Kd, ligand ouabain): > 10000 nM
- binding of ouabain (FIG. 1, in words) ([6]; FIG. 1): no binding is observed
- Kd [7]: 2.7 ± 2 nM
- Kd ([8]; fluorescence titration, 1 μM mutein, PBS with 1 mM EDTA, 25° C., read-out: Kd, ligand digoxigenin): 30.2 ± 3.6 nM

B2: DigA: mutein of the bilin-binding protein selected for digoxigenin binding, SEQ ID NO:12 (amino acid sequence SEQ ID NO: 21) (protein)
chain: B1 chain with Q28E, A31K, D34H, I36E, T37R
- Kd [5]: 200 ± 34 nM
- Kd ([8]; determined according to Example 3, read-out: affinity between the mutein and digoxigenin): 295 ± 36 nM
